Where a chain is given by its changes, count along the chain named. Names and notes keep the numbering of the source. Each block holds one binder with its values, some of them ahead of it.
Legend:
[1] = target: T1, Recombinant Human GFRα-1/GDNF Rα-1 Fc Chimera (human, UniProt P56159 25-429); assay: Biacore (SPR), GFRα-1; 4 C sample of the 4-week stability comparison
T1 construct: Purchased Fc chimera; It was captured on protein A in Biacore and coated on the plate in ELISA; also called GFRα1-Fc; recombinant human GFRα1-Fc chimera, carrier-free; not shown: Fc part of a purchased Fc chimera
T1 sequence (looked up): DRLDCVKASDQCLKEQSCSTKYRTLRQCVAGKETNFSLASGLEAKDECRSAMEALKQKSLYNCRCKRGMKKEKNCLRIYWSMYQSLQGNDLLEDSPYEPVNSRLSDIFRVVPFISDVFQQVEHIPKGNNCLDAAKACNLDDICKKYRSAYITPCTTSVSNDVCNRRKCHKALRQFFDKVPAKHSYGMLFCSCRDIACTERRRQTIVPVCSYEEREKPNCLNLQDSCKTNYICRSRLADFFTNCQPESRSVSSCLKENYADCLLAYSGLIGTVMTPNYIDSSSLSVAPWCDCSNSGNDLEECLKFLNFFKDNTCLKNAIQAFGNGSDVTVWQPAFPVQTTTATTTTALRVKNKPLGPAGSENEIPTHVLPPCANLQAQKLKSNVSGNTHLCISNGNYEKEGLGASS

[2] = target: T1, Recombinant Human GFRα-1/GDNF Rα-1 Fc …; assay: SPR (Biacore 2000), GFRα1-Fc captured on protein A, GDNFv as analyte, 1:1 Langmuir, 25 C
Experimental: (§1) A Biacore® 2000 instrument is used to measure the binding kinetics of GDNFv to human and rat GDNF family receptors (GFRα1 and GFRα2). Measurements are performed at 25° C. Samples are dissolved in HBS-EP buffer (150 mM sodium chloride, 3 mM EDTA, 0.005% (w/v) surfactant P-20, pH 7.4). Protein A, Staphylococcus aureus is immobilized on flow cells 1 to 4 of a CM4 sensor chip (GE Healthcare #BR-1005-39) at a level of ˜200 response units (RUs) using amine coupling chemistry to capture GFR Fc chimera (Recombinant Human GFRα-1/GDNF Rα-1 Fc Chimera; Recombinant Human GFRα-2/GDNF Rα-2 Fc Chimera; Recombinant Rat GFRα-1/GDNF Rα-1 Fc Chimera; Recombinant Mouse GFRα-2/GDNF Rα-2 Fc Chimera).
(§2) Binding is evaluated using multiple cycles. Each cycle consists of the following steps: 1) injection of about 10 μL of GFR at a concentration of ˜1.0 μg/mL and a flow rate of 10 μL/min., aiming at a capture of 120-150 RUs; 2) injection of 250 μL of GDNFv at a flow rate of 50 μL/min., in a final concentration rage between 10 nM and 0.04 nM followed by […]. for dissociation; and 3) regeneration using about 30 μL of 10 mM glycine hydrochloride, pH 1.5. Association and dissociation rates for each cycle are evaluated using a “1:1 (Langmuir) binding” model in the BIAevaluation software, version 4.1.

human c-Ret = human c-Ret (human, UniProt P07949 29-1114, phosphorylation at Y1016 is the readout); assay: cell-based or functional assay
Chain of human c-Ret (P07949 29-1114): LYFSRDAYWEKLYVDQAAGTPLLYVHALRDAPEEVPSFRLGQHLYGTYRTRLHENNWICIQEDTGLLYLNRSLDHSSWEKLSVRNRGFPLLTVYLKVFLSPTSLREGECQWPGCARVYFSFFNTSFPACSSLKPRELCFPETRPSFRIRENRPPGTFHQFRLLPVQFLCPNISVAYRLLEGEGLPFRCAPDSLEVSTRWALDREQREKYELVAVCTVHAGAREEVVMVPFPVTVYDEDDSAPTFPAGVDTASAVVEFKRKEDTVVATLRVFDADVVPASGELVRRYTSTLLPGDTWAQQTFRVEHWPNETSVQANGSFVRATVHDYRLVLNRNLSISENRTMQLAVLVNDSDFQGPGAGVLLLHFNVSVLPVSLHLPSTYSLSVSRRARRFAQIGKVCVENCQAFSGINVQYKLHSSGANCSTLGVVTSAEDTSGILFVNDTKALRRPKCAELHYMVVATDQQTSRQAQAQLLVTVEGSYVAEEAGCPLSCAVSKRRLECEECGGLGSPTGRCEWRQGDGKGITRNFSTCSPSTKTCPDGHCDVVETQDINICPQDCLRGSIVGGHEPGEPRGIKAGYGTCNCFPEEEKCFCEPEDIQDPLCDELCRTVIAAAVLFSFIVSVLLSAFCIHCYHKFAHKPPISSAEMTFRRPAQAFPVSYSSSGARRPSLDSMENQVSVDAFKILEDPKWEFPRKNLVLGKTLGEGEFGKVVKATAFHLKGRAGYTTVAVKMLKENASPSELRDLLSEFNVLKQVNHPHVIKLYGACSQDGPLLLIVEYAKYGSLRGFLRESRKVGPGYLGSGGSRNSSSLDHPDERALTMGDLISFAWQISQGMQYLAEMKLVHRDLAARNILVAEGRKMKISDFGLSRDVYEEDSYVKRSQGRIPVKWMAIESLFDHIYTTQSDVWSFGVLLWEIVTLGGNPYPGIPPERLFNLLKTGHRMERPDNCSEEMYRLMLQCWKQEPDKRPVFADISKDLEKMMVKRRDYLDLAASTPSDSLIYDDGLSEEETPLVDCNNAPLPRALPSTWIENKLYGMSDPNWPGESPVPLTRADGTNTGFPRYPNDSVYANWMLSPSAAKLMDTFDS

[3] = target: T1, Recombinant Human GFRα-1/GDNF Rα-1 Fc …; assay: ELISA, plate-bound human GFRα1-Fc; 4 C sample
Experimental: GDNF wild type and variants are tested in an ELISA assay, in which binding of the GDNF proteins to the plate-bound receptor (GFRα1) is measured. A “no GDNF” condition and/or an “irrelevant protein” condition are used as negative controls.
Each well of a 96-well plate (Greiner 655081 Immunobind ELISA plates) is coated with 70 μl of human GFRα1 (recombinant human GFRα1-Fc chimera, carrier-free) at 1 μg/ml in carbonate buffer, pH 9.6. If an irrelevant receptor is coated, it is an irrelevant Fc chimera and is coated at the same concentration as GFRα1. The plates are sealed and incubated at 4° C. overnight. The wells are aspirated and washed twice with washing buffer (20 mM Tris (hydroxymethyl) aminomethane, pH 7.4, 0.15 M NaCl, 0.1% Tween-20), using an automatic plate washer. The plates are blocked with 200 μl blocking buffer per well (3% Carnation Instant milk in the above washing buffer) for at least 1 hour at room temperature. Plates are washed twice with washing buffer.
GDNF proteins are serially diluted into blocking buffer at an appropriate concentration range, typically beginning at 5 μg/ml and serially diluting 1:10. A no GDNF control is used, which consists of blocking buffer alone. 50 μl of each GDNF solution is added to the GFRα1 coated wells in triplicate. The plates are incubated for 1.5 hours at room temperature. The wells are then washed 3 times with washing buffer.

[4] = target: T2, Recombinant Human GFRα-2/GDNF Rα-2 Fc Chimera (human, UniProt O00451 22-441); assay: SPR (Biacore 2000), human GFRα2-Fc captured on protein A, GDNFv as analyte, 1:1 Langmuir, 25 C
T2 construct: Purchased Fc chimera; not shown: Fc part of a purchased Fc chimera
T2 sequence (looked up): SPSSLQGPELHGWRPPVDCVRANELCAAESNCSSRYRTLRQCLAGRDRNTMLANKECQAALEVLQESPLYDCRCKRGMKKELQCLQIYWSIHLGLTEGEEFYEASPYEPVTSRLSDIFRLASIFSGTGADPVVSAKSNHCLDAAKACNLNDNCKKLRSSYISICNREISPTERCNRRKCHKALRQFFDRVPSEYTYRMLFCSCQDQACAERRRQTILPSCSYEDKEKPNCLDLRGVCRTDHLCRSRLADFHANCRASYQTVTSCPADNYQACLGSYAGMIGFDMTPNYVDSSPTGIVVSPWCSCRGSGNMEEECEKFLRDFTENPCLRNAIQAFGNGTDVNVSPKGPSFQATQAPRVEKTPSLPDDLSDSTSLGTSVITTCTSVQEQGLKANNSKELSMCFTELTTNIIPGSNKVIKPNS
Experimental: as §1, §2

Kd [1]: 0.029 nM
Kd [2]: 0.029 nM
koff [2]: 9e-05 s⁻¹
kon [2]: 3.8e+06 M⁻¹ s⁻¹
c-Ret phosphorylation at Y1016, EC50 (human c-Ret): 0.008 to 0.015 mg/L
EC50 [3]: 0.6 nM
Kd [4]: 0.047 nM
koff [4]: 0.00025 s⁻¹
kon [4]: 5.3e+06 M⁻¹ s⁻¹
B1: CHO-Δ31-GDNF (SEQ ID NO: 8) (ligand)
chain: RGQRGKNRGCVLTAIHLNVTDLGLGYETKEELIFRYCSGSCDAAETTYDKILKNLSRNRRLVSDKVGQACCRPIAFDDDLSFLDDNLVYHILRKHSAKRCGCI
modifications: N-glycosylated at N49 (numbering of mature GDNF)
notes: Expressed in CHO cells; also called CHO-Δ31-GDNFv; WT CHO Δ31-GDNFv

Kd [1]: 0.03 nM
Kd [2]: 0.03 nM
koff [2]: 0.00011 s⁻¹
kon [2]: 4.5e+06 M⁻¹ s⁻¹
c-Ret phosphorylation at Y1016, EC50 (human c-Ret): 0.008 to 0.015 mg/L
EC50 [3]: 0.8 nM
Kd [4]: 0.047 nM
koff [4]: 0.00035 s⁻¹
kon [4]: 7.6e+06 M⁻¹ s⁻¹
B2: CHO-Δ31-N38Q-D95E-GDNF (SEQ ID NO: 9) (ligand)
chain: B1 chain with N7Q, D64E
modifications: N-glycosylated at N49 (numbering of mature GDNF)
notes: Expressed in CHO cells; also called CHO-Δ31-N38Q-D95E-GDNFv; GDNF variant 2

Reference: patent publication US20130324474A1 (Eli Lilly, published 2013)
